Experimental data: patent US20200385459A1 (University of Texas, published 2020)
Changes are numbered by the printed parent chain. Several values for one entry are separate records, joined by “and”; a condition that tells them apart may be missing. Equal entries are not always repeated. Blank lines part the entries; values can stand above or below the binder they belong to.

How the values were obtained:
[1] = target: T1, His-tagged recombinant human LRP10 protein, LRP10-516H (human) (UniProt Q7Z4F1); assay: ELISA, coated LRP10, antibody at 0.24 ng/ml
T1 sequence (looked up): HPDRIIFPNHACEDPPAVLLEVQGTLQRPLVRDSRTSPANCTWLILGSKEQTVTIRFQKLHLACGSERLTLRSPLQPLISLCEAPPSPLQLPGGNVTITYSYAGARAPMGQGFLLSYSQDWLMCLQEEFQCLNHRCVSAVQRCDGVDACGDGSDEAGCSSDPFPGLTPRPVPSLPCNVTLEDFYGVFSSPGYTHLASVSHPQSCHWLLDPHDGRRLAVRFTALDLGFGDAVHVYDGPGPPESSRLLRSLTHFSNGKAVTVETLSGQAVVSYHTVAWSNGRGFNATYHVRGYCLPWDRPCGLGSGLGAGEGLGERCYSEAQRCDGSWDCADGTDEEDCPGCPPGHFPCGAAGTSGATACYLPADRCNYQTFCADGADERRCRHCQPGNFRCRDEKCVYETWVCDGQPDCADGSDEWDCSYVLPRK

[2] = target: T1, His-tagged recombinant human LRP10 protein, LRP10-516H (human); assay: ELISA, coated LRP10, antibody at 62.5 ng/ml
[3] = target: T1, His-tagged recombinant human LRP10 protein, LRP10-516H (human); assay: ELISA, coated LRP10, antibody at 1000 ng/ml
[4] = target: T1, His-tagged recombinant human LRP10 protein, LRP10-516H (human); assay: ELISA, coated LRP10, antibody at 0.98 ng/ml
[5] = target: T1, His-tagged recombinant human LRP10 protein, LRP10-516H (human); assay: ELISA, coated LRP10, antibody at 15.63 ng/ml
[6] = target: T1, His-tagged recombinant human LRP10 protein, LRP10-516H (human); assay: ELISA, coated LRP10, antibody at 3.91 ng/ml
[7] = target: T1, His-tagged recombinant human LRP10 protein, LRP10-516H (human); assay: ELISA, coated LRP10, antibody at 0 ng/ml (background well)
[8] = target: T1, His-tagged recombinant human LRP10 protein, LRP10-516H (human); assay: ELISA, coated LRP10, antibody at 250 ng/ml
[9] = target: T2, mouse LRP10 (Lrp10) on C57BL/6 T cells (mouse (Mus musculus), UniProt Q7TQH7 18-713); assay: cell-based or functional assay
T2 sequence (looked up): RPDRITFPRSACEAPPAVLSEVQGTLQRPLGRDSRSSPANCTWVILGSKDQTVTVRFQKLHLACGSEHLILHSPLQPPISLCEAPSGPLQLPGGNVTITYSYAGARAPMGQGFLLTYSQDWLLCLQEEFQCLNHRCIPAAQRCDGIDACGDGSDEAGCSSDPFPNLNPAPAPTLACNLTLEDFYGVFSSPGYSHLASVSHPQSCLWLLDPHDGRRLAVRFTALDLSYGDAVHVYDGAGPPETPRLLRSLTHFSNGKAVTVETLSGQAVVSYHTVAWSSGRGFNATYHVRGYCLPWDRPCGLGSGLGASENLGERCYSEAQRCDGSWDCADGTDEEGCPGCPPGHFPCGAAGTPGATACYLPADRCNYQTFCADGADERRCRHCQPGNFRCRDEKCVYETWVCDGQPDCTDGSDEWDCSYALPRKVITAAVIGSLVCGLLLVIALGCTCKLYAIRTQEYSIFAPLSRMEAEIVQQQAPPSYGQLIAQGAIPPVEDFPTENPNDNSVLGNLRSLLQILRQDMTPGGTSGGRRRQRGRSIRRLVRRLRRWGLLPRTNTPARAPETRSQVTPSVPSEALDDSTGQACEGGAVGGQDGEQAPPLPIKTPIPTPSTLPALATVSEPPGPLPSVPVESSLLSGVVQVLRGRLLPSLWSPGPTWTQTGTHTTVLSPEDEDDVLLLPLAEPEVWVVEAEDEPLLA

[10] = target: T3, His-tagged recombinant human LRP10 protein, LRP10-516H (human, UniProt Q7Z4F1 17-440); assay: ELISA, coated LRP10, serial dilution of antibody
T3 construct: The ELISA protocol calls the coated protein 'LR10'; also called target protein LR10; target antigen; not shown: His tag
T3 sequence (looked up): T1 sequence (looked up)
Description: 1) Coat the target protein LR10 (1 μg/ml, 0.1 μg/well) in a certain coating buffer (0.1 M NaHCO₃, pH 9.6). Incubate overnight at 4° C. [0234] 2) Wash the wells 3 times with 300 μL washing buffer (0.1% PBST) per well. [0235] 3) Block the wells with 300 μL blocking buffer (3% BSA) for 1 h at 37° C. [0236] 4) Discard the blocking buffer and wash the plate 3 times with the washing buffer, slapping the plate face-down onto a clean section of paper towel each time. [0237] 5) Add 100 μL of a serial dilution of antibodies per well. Incubate at 37° C. for 1 h. [0238] 6) Wash 3 times with the washing buffer. Dilute HRP-goat anti-human IgG (1:4,000) in the blocking buffer (3% BSA). Add 100 μL of diluted conjugate per well and incubate at 37° C. for 1 h. […] 7) Wash 3 times with the washing buffer. Dissolve Tetramethylbenzidine (TMB) substrate (Sigma, USA) in […] citrate-phosphate buffer and add 1 μL/mL H₂O₂ to the solution. Add 100 μL of substrate solution per well and incubate at room temperature for 15 minutes. [0240] 8) Add 100 μL of 2 mol/L H₂SO₄ solution to stop the reaction. [0241] 9) Read plates using a microplate reader set at 490 nm.
For the 8 well-expressed antibodies, we tested their binding activities to the target antigen by ELISA (Table 7 and FIG. 11).

[11] = target: T3, His-tagged recombinant human LRP10 …; assay: ELISA on coated LRP10

- ELISA signal (plate read at 490 nm) [1]: 0.0606 and 0.0573
- ELISA signal (plate read at 490 nm) [2]: 0.09 and 0.0989
- ELISA signal (plate read at 490 nm) [3]: 0.289 and 0.349
- ELISA signal (plate read at 490 nm) [4]: 0.0588 and 0.0556
- ELISA signal (plate read at 490 nm) [5]: 0.0656 and 0.0659
- ELISA signal (plate read at 490 nm) [6]: 0.0615 and 0.0582
- ELISA signal (plate read at 490 nm) [7]: 0.0595 and 0.0594
- ELISA signal (plate read at 490 nm) [8]: 0.128 and 0.133
B1: Clone 6 (AB6) (antibody, human IgG1, V domains shown)
VH: EVQLLESGGGLVQPGGSLRLSCAASGFTFSSYAMSWVRQAPGKGLEWVSSIPSRGQATKYADSVKGRFTISRDNSKNTLYLQMNSLRAEDTAVYYCAKSRHTFDYWGQGTLVTVSS
VL: DIQMTQSPSSLSASVGDRVTITCRASQSISSYLNWYQQKPGKAPKLLIYDASLLQSGVPSRFSGSGSGTDFTLTISSLQPEDFATYYCQQTSAGPGTFGQGTKVEIK

- migration rate of T cells in response to SDF-1, transwell [9]: ~2 fold higher than vehicle
- EC50 [10]: 0.0357 µg/mL
B2: Clone 7 (AB7) (antibody, human IgG1, V domains shown)
VH: B1 VH with P52A, S53T, R54T, Q56N, A57T, K59Y, S99N, R100T, H101A
VL: B1 VL with D50A, L53T, T91N, S92D, A93Y, G94Y, G96T
notes: Expressed as a full antibody in 293F cells, protein A purified; also called AB7 (L7 + H6); AB7: L7 + H6

- binding result [11]: no binding
B5: Clone 9 (AB9) (antibody, human IgG1, V domains shown)
VH: B1 VH with P52Y, S53T, R54S, Q56A, K59T, R100Y, H101P, T102S
VL: B1 VL with D50N, L53D, T91S, A93R, G94T, G96T
notes: Expressed as a full antibody in 293F cells, protein A purified; also called AB9 (L1 + H8); AB9: L1 + H8

- migration rate of T cells in response to SDF-1, transwell [9]: ~2 fold higher than vehicle
- EC50 [10]: 0.0117 µg/mL
B7: Clone 8 (AB8) (antibody, human IgG1, V domains shown)
VH: B1 VH with P14L, Y32Q, S53P, R54G, Q56P, A57N, R100Y, H101P, T102S
VL: B1 VL with D50N, L53D, T91S, A93R, G94T, G96T
notes: Expressed as a full antibody in 293F cells, protein A purified; also called AB8 (L1 + H7); AB (L1 + H7)

Further lines, the binder ahead of its results:

B3: Clone 3 (AB3) (antibody, human IgG1, V domains shown)
VH: B1 VH with S50Q, P52G, S53T, R54M, Q56R, A57P, K59T, R100G, H101K, T102K
VL: B1 VL with D50R, L53R, T91P, S92T, A93S, G94L, G96L
notes: Expressed as a full antibody in 293F cells, protein A purified; also called AB3 (L3 + H2); AB3: L3 + H2
- EC50 [10]: 0.0349 µg/mL

B4: Clone 1 (AB1) (antibody, V domains shown)
VH: B1 VH with Y32Q, S53P, R54G, Q56P, A57N, R100Y, H101P, T102S
VL: B1 VL with D50N, L53D, T91S, A93R, G94T, G96T
notes: also called AB1 (L1 + H1); AB1: L1 + H1
- EC50 [10]: 0.013 µg/mL

B6: Clone 2 (AB2) (antibody, human IgG1, V domains shown)
VH: B1 VH with Y32Q, S53P, R54G, Q56P, A57N, R100Y, H101P, T102S
VL: B1 VL with D50A, L53P, T91V, S92A, A93R, G94T, G96N
notes: Expressed as a full antibody in 293F cells, protein A purified; also called AB2 (L2 + H1); AB2: L2 + H1
- migration rate of T cells in response to SDF-1, transwell [9]: ~2 fold higher than vehicle
- EC50 [10]: 0.0148 µg/mL
